Reference: patent publication US20250161357A1, “HUMAN T CELL RECEPTOR PAIRS REACTIVE WITH HLA-A*02:01 RESTRICTED HUMAN PROSTATIC ACID PHOSPHATASE (PAP) EPITOPES” (The Regents of the University of California, priority 2022, published 2025)

Legend:
[1] = target: HLA-A*02:01 (Homo sapiens, UniProt P04439, D140Y/D185E/D98H/E176V/E277Q/G131W/G231S/I119V/I121R/I166T/I218V/L300P/L318F/N151K/N90K/P208A/P217A/Q86G/Q94H/R138H/R169H/T345S); assay: T2 peptide binding (stabilization) assay; format: cell-based; conditions: peptides exogenously pulsed on T2 cells; anti-HLA-A2 FITC (BB7.2), FACS
[2] = men with metastatic castration-resistant prostate cancer; cited from earlier work
[3] = target: T1, PAP (Homo sapiens, UniProt P15309); conditions: positive response SI>5 at week 6 post immunization; cited from earlier work
T1 sequence (P15309 33-386): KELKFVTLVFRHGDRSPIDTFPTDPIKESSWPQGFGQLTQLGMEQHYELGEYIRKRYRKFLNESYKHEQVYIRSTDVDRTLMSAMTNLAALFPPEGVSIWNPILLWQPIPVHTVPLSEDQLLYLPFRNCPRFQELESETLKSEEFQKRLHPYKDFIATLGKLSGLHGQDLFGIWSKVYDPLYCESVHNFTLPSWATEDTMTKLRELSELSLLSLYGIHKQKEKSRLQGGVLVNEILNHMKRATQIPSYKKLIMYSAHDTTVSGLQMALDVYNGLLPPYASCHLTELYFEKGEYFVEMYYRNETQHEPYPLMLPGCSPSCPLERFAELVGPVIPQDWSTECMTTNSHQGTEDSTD

[4] = tested on: PAP+ target cells; conditions: video evidence; cited from earlier work
[5] = target: T2, HLA-A*02:01 (Homo sapiens, UniProt P04439, D140Y/D185E/D98H/E176V/E277Q/G131W/G231S/I119V/I121R/I166T/I218V/L300P/L318F/N151K/N90K/P208A/P217A/Q86G/Q94H/R138H/R169H/T345S/Y108C); assay: Secreted single-chain trimer (SCT) quantification assay
T2 construct: made in house
Text: Peptide-MHC I complexes processed by endogenous machinery might show different stability compared to exogenous peptide pulsing (such as in T2 binding assays). This can be the result of post-translational modifications (PTMs). A recently developed technique, secreted single-chain trimer (SCT), was used to evaluate relative stability of pMHC of interest (36). In the secreted SCT construct, MHC I heavy chain (HLA-A*02:01 alpha chain with H74L and Y84C mutation), light chain (beta-microglobulin), and corresponding peptide were tethered by linkers as one single chain molecule (FIG. 3a). Constructs were expressed in cells and released into culture supernatant. Only peptides favored by HLA-A*02:01 are expected to generate a stable SCT and have higher yields. The quantity of SCTs was measured by band intensity on SDS-PAGE and normalized against a well-known WT1 cancer epitope that is restricted on HLA-A*02:01 ([…]) (FIG. 3b) (37, 38).
SCT quantification assay: SCT constructs (mutant H74L/Y84C) with individual PAP peptides were synthesized according to the previously published protocol (36).

[6] = target: T3, HLA-A*02:01 on T2 cells (human); assay: T2 binding assay, HLA-A2 on T2 cells by anti-A2 (BB7.2) FITC flow cytometry
T3 construct: also called HLA-A2; A2

[7] = target: T3, HLA-A*02:01 on T2 cells; assay: T2 stabilization assay, HLA-A2 on T2 cells by anti-A2 (BB7.2) FITC flow cytometry
[8] = target: T4, prostatic acid phosphatase (PAP); peptide PAP_A2_25 peptide on HLA-A*02:01 (human); assay: cytokine release
T4 peptide: IMYSAHDTTV

[9] = target: T5, prostatic acid phosphatase (PAP); peptide PAP_A2_21 peptide on HLA-A*02:01 (human); assay: activation reporter or marker
T5 peptide: LLLARAASLSL

[10] = target: T6, prostatic acid phosphatase (PAP); peptide PAP_A2_14 peptide on HLA-A*02:01 (human); assay: multimer staining
T6 peptide: ILLWQPIPV

For “LLLARAASLSL (listed as Homo sapiens) [PAP-A2-21]”, the “HLA-A2 signal in T2 assay (slope of natural log of A2 fluorescent intensity vs diluted peptide concentration)” value [1] was “Positive”.

For “ILLWQPIPV (listed as Homo sapiens) [PAP-A2-14]”, the “HLA-A2 signal in T2 assay (slope of natural log of A2 fluorescent intensity vs diluted peptide concentration)” value [1] was “Positive”.

In the case of “KVYDPLYCESV (listed as Homo sapiens) [PAP-A2-20]”, the “HLA-A2 signal in T2 assay (slope of natural log of A2 fluorescent intensity vs diluted peptide concentration)” value [1] is reported as “Positive”.

In the case of “IMYSAHDTTV (listed as Homo sapiens) [PAP-A2-25]”, the “HLA-A2 signal in T2 assay (slope of natural log of A2 fluorescent intensity vs diluted peptide concentration)” value [1] is reported as “Positive”.

For sipuleucel-T, the “median improvement in overall survival” value [2] is listed as 4.1 months, the “patients displaying T cell proliferation responses to PAP” value [3] is listed as 27.2% and the “lysis of PAP+ target cells by T cells from treated patients” value [4] is listed as “capable of lysing”.

With “SVHNFTLPSW (listed as Homo sapiens) [PAP-A2-24]” the “affinity toward HLA-A*02:01 after glycosylation” value ([5]; N-glycosylated peptide in SCT) was “altered affinity” and the “SCT yield normalized to control WT1 epitope (RMFPNAPYL)” value ([5]; band intensity on SDS-PAGE, cutoff 0.2 for relatively high stability) was 1.40.

TLMSAMTNL [PAP-A2-22 peptide TLMSAMTNL]: binds [6].

KVYDPLYCESV [PAP-A2-20 peptide KVYDPLYCESV]: binds [7].

LLLARAASLSL (also called PAP-21) [PAP-A2-21 peptide LLLARAASLSL]: binds [7].

B1: PAP-TCR-213 (TCR, V domains shown)
Valpha: TQLLEQSPQFLSIQEGENLTVYCNSSSVFSSLQWYRQEPGEGPVLLVTVVTGGEVKKLKRLTFQFGDARKDSSLHITAAQPGDTGLYLCAGAPETSGSRLTFGEGTQLTVNP
Vbeta: GAGVSQTPSNKVTEKGKYVELRCDPISGHTALYWYRQSLGQGPEFLIYFQGTGAADDSGLPNDRFFAVRPEGSVSTLKIQRTERGDSAVYLCASSFGGGSSPLHFGNGTRLTVT
B1: recognises [8].

B2: PAP-TCR-175 (TCR, V domains shown)
Valpha: ILNVEQSPQSLHVQEGDSTNFTCSFPSSNFYALHWYRWETAKSPEALFVMTLNGDEKKKGRISATLNTKEGYSYLYIKGSQPEDSATYLCAFEDSGYSTLTFGKGTMLLVSP
Vbeta: DAGITQSPRYKITETGRQVTLMCHQTWSHSYMFWYRQDLGHGLRLIYYSAAADITDKGEVPDGYVVSRSKTENFPLTLESATRSQTSVYFCASGGLAGVDEQYFGPGTRLTVT
B2: recognises [9].

B3: PAP-TCR-225 (TCR, V domains shown)
Valpha: DQQVKQNSPSLSVQEGRISILNCDYTNSMFDYFLWYKKYPAEGPTFLISISSIKDKNEDGRFTVFLNKSAKHLSLHIVPSQPGDSAVYFCAASVDEKLTFGTGTRLTIIP
Vbeta: DTGVSQNPRHKITKRGQNVTFRCDPISEHNRLYWYRQTLGQGPEFLTYFQNEAQLEKSRLLSDRFSAERPKGSFSTLEIQRTEQGDSAMYLCASSLQVEQFFGPGTRLTVL
B3: recognises [9].

B4: PAP-TCR-204 (TCR, V domains shown)
Valpha: AQSVTQPDIHITVSEGASLELRCNYSYGATPYLFWYVQSPGQGLQLLLKYFSGDTLVQGIKGFEAEFKRSQSSFNLRKPSVHWSDAAEYFCAVGAGDYKLSFGAGTTVTVRA
Vbeta: ETGVTQTPRHLVMGMTNKKSLKCEQHLGHNAMYWYKQSAKKPLELMFVYSLEERVENNSVPSRFSPECPNSSHLFLHLHTLQPEDSALYLCASSQTTGQPQHFGDGTRLSIL
B4: recognises [10].
